Measured values: the supplement of paper PMC9112550, “Optimization of the antimicrobial peptide Bac7 by deep mutational scanning” (BMC Biology, 2022)

Test system: Escherichia coli TOP10
Assay: shrunken log2 fold change of peptide-encoding DNA abundance (4.5 h post-induction vs induction); higher = less antimicrobial activity (less host growth inhibition)
Settings: time post-induction: 4.5 h; library: site-saturation at positions 5, 18, 19, 20
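Note: peptides expressed intracellularly from a pBAD plasmid library in pooled LB shake-flask culture, induced with 0.3% L-arabinose, DNA abundance read by NGS, three biological replicates, DESeq2 with apeglm shrinkage.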

Sequence	shrunken log2 fold change
RRIRGRPPRLPRPRPRPNLNPRP	0.0742
RRIRGRPPRLPRPRPRPNLQPRP	0.347
RRIRGRPPRLPRPRPRPNMGPRP	0.269
RRIRGRPPRLPRPRPRPNMKPRP	0.275
RRIRGRPPRLPRPRPRPNMWPRP	0.274
RRIRGRPPRLPRPRPRPNNAPRP	0.0616
RRIRGRPPRLPRPRPRPNNLPRP	-0.349
RRIRGRPPRLPRPRPRPNPEPRP	0.511
RRIRGRPPRLPRPRPRPNQRPRP	0.27
RRIRGRPPRLPRPRPRPNREPRP	-0.0791
RRIRGRPPRLPRPRPRPNVCPRP	-0.237
RRIRGRPPRLPRPRPRPNYGPRP	0.07
RRIRGRPPRLPRPRPRPNYVPRP	0.216
RRIRGRPPRLPRPRPRPPDVPRP	0.0671
RRIRGRPPRLPRPRPRPPEEPRP	1.5
RRIRGRPPRLPRPRPRPPENPRP	1.11
RRIRGRPPRLPRPRPRPPFEPRP	0.691
RRIRGRPPRLPRPRPRPPFLPRP	0.444
RRIRGRPPRLPRPRPRPPFPPRP	1.17
RRIRGRPPRLPRPRPRPPFSPRP	0.444
RRIRGRPPRLPRPRPRPPFVPRP	0.803
RRIRGRPPRLPRPRPRPPFYPRP	0.397
RRIRGRPPRLPRPRPRPPGDPRP	1.18
RRIRGRPPRLPRPRPRPPHEPRP	0.773
RRIRGRPPRLPRPRPRPPHRPRP	0.81

Sequence	shrunken log2 fold change
RRIRGRPPRLPRPRPRPPIMPRP	0.375
RRIRGRPPRLPRPRPRPPIRPRP	0.849
RRIRGRPPRLPRPRPRPPLAPRP	1.35
RRIRGRPPRLPRPRPRPPMMPRP	0.626
RRIRGRPPRLPRPRPRPPPIPRP	1.16
RRIRGRPPRLPRPRPRPPPYPRP	0.611
RRIRGRPPRLPRPRPRPPQCPRP	0.713
RRIRGRPPRLPRPRPRPPQGPRP	0.812
RRIRGRPPRLPRPRPRPPQHPRP	0.789
RRIRGRPPRLPRPRPRPPQIPRP	0.859
RRIRGRPPRLPRPRPRPPQVPRP	0.791
RRIRGRPPRLPRPRPRPPQYPRP	0.38
RRIRGRPPRLPRPRPRPPSGPRP	0.766
RRIRGRPPRLPRPRPRPPSRPRP	1.11
RRIRGRPPRLPRPRPRPPVHPRP	0.644
RRIRGRPPRLPRPRPRPPYNPRP	-0.163
RRIRGRPPRLPRPRPRPPYPPRP	0.291
RRIRGRPPRLPRPRPRPQEHPRP	0.146
RRIRGRPPRLPRPRPRPQGIPRP	-0.128
RRIRGRPPRLPRPRPRPQHGPRP	0.137
RRIRGRPPRLPRPRPRPQHRPRP	0.212
RRIRGRPPRLPRPRPRPQIAPRP	1.94
RRIRGRPPRLPRPRPRPQIGPRP	0.345
RRIRGRPPRLPRPRPRPQLAPRP	1.19
RRIRGRPPRLPRPRPRPQLPPRP	0.183

Sequence	shrunken log2 fold change
RRIRGRPPRLPRPRPRPQMIPRP	1.83
RRIRGRPPRLPRPRPRPQMMPRP	0.112
RRIRGRPPRLPRPRPRPQNPPRP	0.0251
RRIRGRPPRLPRPRPRPQNSPRP	-0.506
RRIRGRPPRLPRPRPRPQPHPRP	0.582
RRIRGRPPRLPRPRPRPQPMPRP	0.412
RRIRGRPPRLPRPRPRPQQTPRP	1.6
RRIRGRPPRLPRPRPRPQQVPRP	0.564
RRIRGRPPRLPRPRPRPQRYPRP	-0.00818
RRIRGRPPRLPRPRPRPQSAPRP	0.629
RRIRGRPPRLPRPRPRPQSGPRP	0.0868
RRIRGRPPRLPRPRPRPQSHPRP	0.214
RRIRGRPPRLPRPRPRPQSNPRP	0.518
RRIRGRPPRLPRPRPRPQTFPRP	0.762
RRIRGRPPRLPRPRPRPQTPPRP	1.36
RRIRGRPPRLPRPRPRPQTRPRP	1.12
RRIRGRPPRLPRPRPRPQVEPRP	-0.0312
RRIRGRPPRLPRPRPRPQWWPRP	0.53
RRIRGRPPRLPRPRPRPQYCPRP	0.192
RRIRGRPPRLPRPRPRPQYPPRP	-0.865
RRIRGRPPRLPRPRPRPRDVPRP	0.654
RRIRGRPPRLPRPRPRPREHPRP	0.783
RRIRGRPPRLPRPRPRPRFEPRP	0.881
RRIRGRPPRLPRPRPRPRFIPRP	0.123
RRIRGRPPRLPRPRPRPRHLPRP	0.221
